From US20220281965A1 (AstraZeneca / MedImmune, published 2022)

Assays:
[1] = biological target: T1, biotinylated human H202D GDF-15 variant (human, UniProt Q99988 197-308, biotinylated, sites not stated); assay: HTRF binding assay, biotinylated antigen, titration of antibody
T1 construct: also called Human GDF-15 H202D
T1 chain: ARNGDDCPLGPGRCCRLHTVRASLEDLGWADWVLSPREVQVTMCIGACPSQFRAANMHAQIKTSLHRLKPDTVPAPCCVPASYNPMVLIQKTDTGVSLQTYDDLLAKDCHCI
Description: (§1) Supernatants generated from the immunizations with human GDF-15 and purified IgGs were screened to identify IgGs with specific binding to human, cynomolgus, or mouse GDF-15. The HTRF (Homogeneous Time Resolved Fluorescence) assay is based on detection of a measurable FRET signal upon binding of a titration of test antibody to biotinylated human H202D GDF-15 variant, cynomolgus GDF-15 and mouse GDF-15. Europium cryptate (EuK) labelled Streptavidin and anti-human IgG XL665 (Cis Bio) were used as secondary detection reagents serving as energy donor and acceptor respectively. In the absence of test antibody binding, there is no detectable FRET fluorescence. When test antibody binds to GDF-15, the resulting physical proximity between the secondary reagent donor/acceptor pair results in FRET. FRET was measured ratiometrically [665 nm (acceptor)/620 nm (donor)] on an Envision plate reader, and data plotted using PRISM 6® software (Graphpad).

mouse GDF-15 = biological target: T2, mouse GDF-15 (mouse, UniProt Q9Z0J7 189-303); assay: as above
T2 construct: also called mGDF-15
T2 sequence: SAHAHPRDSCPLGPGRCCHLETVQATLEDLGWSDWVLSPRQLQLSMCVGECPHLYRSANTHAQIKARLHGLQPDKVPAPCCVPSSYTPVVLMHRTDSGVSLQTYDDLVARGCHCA
Description: as §1

[2] = biological target: T3, biotinylated cynomolgus GDF-15 (cynomolgus, UniProt G7PWZ3 197-308, biotinylated, sites not stated); assay: as above
T3 construct: also called Cyno GDF-15
T3 sequence: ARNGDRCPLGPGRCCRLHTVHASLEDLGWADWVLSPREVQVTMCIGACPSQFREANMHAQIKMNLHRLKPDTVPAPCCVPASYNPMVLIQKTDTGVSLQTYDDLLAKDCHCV
Description: as §1

mature human GDF-15 = biological target: T4, mature human GDF-15 (human, UniProt Q99988 197-308); assay: HTRF epitope competition; competitor DyLight 650 labelled Antibody A; Europium labelled human GDF-15
T4 construct: Homodimer; also called hGDF-15; recombinant hu-GDF15
T4 sequence: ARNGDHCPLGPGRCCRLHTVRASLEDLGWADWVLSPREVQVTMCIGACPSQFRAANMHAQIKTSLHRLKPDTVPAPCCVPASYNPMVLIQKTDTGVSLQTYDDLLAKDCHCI
Description: Antibodies from the immunizations with human GDF-15, in the form of crude supernatants from the immunization or in the form of purified IgGs, were chosen on the basis that they bind and compete with an epitope recognized by a control anti-GDF-15 antibody “Antibody A”. A biochemical epitope competition format was applied using an HTRF epitope competition assay that measured the binding of DyLight 650 labelled Antibody A to Europium labelled human GDF-15 (Prospec). In the absence of Antibody A binding, there is no detectable FRET fluorescence. When Antibody A binds to GDF-15, the resulting physical proximity between the secondary reagent donor/acceptor pair results in FRET. Competition with an antibody that recognizes the same or similar epitope will result in a dose dependent reduction of the FRET signal. FRET was measured ratiometrically [665 nm (acceptor)/620 nm (donor)] on an Envision plate reader, and IC₅₀ values were determined by curve fitting the data to a four parameter logistic equation using PRISM 6® software (Graphpad).

Row | binding result [1] | binding result (mouse GDF-15) | binding result [2] | IC50 (mature human GDF-15) [nM] | Binder
1 | binds | binds | binds | 1.42 | AB1170040 (antibody, V domains shown) VH: DVKLVESGEGLVKPGGSLKLSCAASGFTFSSYAMSWVRQTPEKRLEWVAYISSGGDYIYYADTVKGRFTISRDNARNTLYLQMSSLKSEDTAMYYCTRALVDNAYFDYWGQGTTLTVSS VL: DIVLTQSPASLAVSLGQRATISCRASKSVSTSSYSYMHWYQQKPGQPPKLLIKYASYLEFGVPARFSGSGSGTDFTLNIHPVEEEDAATYYCQHSREFPWTFGGGTKLEIK
2 | binds | binds | binds | 6.83 | AB1170070 (antibody, V domains shown) VH: EVQLQQSGPELVKPGASVKIPCKASGYTFTDYNMDWVKQSHGKSLEWIGDINPYNGITIYNQKFKGKATLTVDKSSSTAYMELRSLTSEDTAVYYCAREEKLGTSFDYWGQGTTLTVSS VL: DIQMTQSPASLSASVGETVTITCRASENIYSNLAWYQQKQGKSPQLLVYAATNLADGVPSRFSGSGSGTQFSLKINSLQPEDFGSYYCQHFYGTPWTFGGGTKLEIK
3 | binds | binds | binds | 97.1 | AB1170006 (antibody, V domains shown) VH: EVQLQQSGPELVKPGASVKIPCKASGYTFTDYNMDWVKQSHGKSLEWIGDINPNNGVTIYNQKFKGKATLTVDKSSSTAYMELRSLTSEDTAVFYCAREELTGNAMDYWGQGTSVTVSS VL: DIQMTQSPASLSVSVGETVTITCRASENIYSHLAWYQQKQGKSPQLLVYAATNLADGVPSRFSGSGSGTQYSLKINSLQSEDFGSYYCQHFWGTPWTFGGGTKLEIK
4 | binds | binds | binds | 0.693 | AB1170072 (antibody, V domains shown) VH: QVTLKESGPGILQPSQTLSLTCSFSGFSLSTYGMGVGWIRQPSGKGLEWLANIWWNDDKYYNSALKSRLTISKDTSNNQVFLKISSVDTADTATYYCAQMAYSWFAYWGQGTLVTVSS VL: DIVMTQSQKFMSTSVGDRVSVTCKASQNMDTNVAWYQQKPGQSPKALIYSASYRYSGVPDRFTGSGSGTDFTLTISNVQSEDLAEYFCQQYNSYPFTFGSGTKLEIK
5 | binds | binds | binds | 2.11 | AB1170073 (antibody, V domains shown) VH: QVTLKESGPGILQPSQTLSLTCSFSGFSLSTFGMGVGWIRQPSGKGLEWLAHIWWDDDKYYNPALKSRLTISKDTSKNQVFLKIANVDTADTATYYCARIAYDGYLDYWGQGTTLTVSS VL: DIVMTQSQKFMSTSVGDRVSVTCKASQNVGTDVAWYQQKPGQSPKSLIYSASYRYSGVPDRFTGSGSGTDFTLTISNVQSEDLAEYFCQQYNSYPYTFGGGTKLEIK
6 | binds | binds | binds | 0.759 | AB1170069 (antibody, V domains shown) VH: QVQLQQSGPELVKPGASVKLSCKASGYTFTSYDINWVKQRPGQGLEWIGWIYPRDGISKYNEKFEGKATLTVDTSSSTAYMELHSLTSEDSAVYFCAGTSDPAYFDYWGQGTTLTVSS VL: DIVLTQSPATLSVTPGDRVSLSCRASQSISYYLHWYQQKSHESPRLLIKYASQSISGIPSRFSGSGSGTDFTLSINSVETEDFGMYFCQQSNSWPYTFGGGTKLEIK
7 | binds | binds | binds | 68.3 | AB1170148 (antibody, V domains shown) VH: QVQLQQPGAELVRPGTSVKLSCKASGYTFTSYWMHWVKQRPRQGLEWIGLIDPSDNYTNYNQNFKGKATLTVDTSSSTAYMQLGSLTSEDSAVYYCASYDGYSTPSAMDYWGQGTSVTVSS VL: QIVLSQSPAILSASPGEKVTMTCRASSSVNYMHWYQQKPGSSPKPWIYATSNLASGVPARFSGSGSGTSYSLIISRVEAEDAAAYYCQQWSSYPPTFGGGTKLEIK

Further lines, the binder ahead of its results:

Row | Binder | binding result [1] | binding result (mouse GDF-15) | binding result [2] | IC50 (mature human GDF-15) [nM]
8 | AB1170028 (antibody, V domains shown) VH: DVKLVESGEGLVKPGGSLKLSCAASGFTFSSFAMSWVRQTPEKRLEWVAYITSGGDYIFYADTVKGRFTISRDNARNTLYLQMSSLKSEDTAMYYCTRDDGYLWFAYWGQGTLVTVSA VL: SIVMTQTPKFLPVSAGDRVTMTCKASQNVGNNVAWYQQKPGQSPKLLIYYASNRYTGVPDRFTGSGSGTDFTFTISSVQVEDLAVYFCQQHYSSPLTFGAGTKLELK | binds | binds | binds | 0.485
9 | AB1170043 (antibody, V domains shown) VH: QVTLKESGPGILQSSQTLSLTCSFSGFSLITSGLGVSWIRQPSGKGLEWLAHIYWDDDKRYNPSLKSRLTISKDTSRNQVFLKITSVDTADTATYYCARGGYDGYYDYWGQGTTLTVSS VL: DVVMTQTPLSLPVSLGDQASISCRSSQSIVHSNGNTNLEWYLQKPGQSPKLLIYKVSNRLSGVPDRFSGSGSGTDFTLKISRVEAEDLGVYYCFQGSHVRTFGGGTKLEIK | binds | binds | binds | 1.95
10 | AB1170086 (antibody, V domains shown) VH: QVTLKESGPGILQSSQTLSLTCSFSGFSLSTSGMGVSWIRQPSGKGLEWLAHIYWDDDKRYNPSLESRLTISKDTSRNQVFLKITSVDTTDTATYYCARGGYDGYYDYWGQGTTLTVSS VL: DVVMTQTPLSLPVSLGDQASISCRSSQSIVHSNGNTNLEWYLQKPGQSPKLLIYKVSNRLSGVPDRFSGSGSGTDSTLKISRVEAEDLGVYYCFQGSHVRTFGGGTKLEIK | binds | binds | binds | 1.11
11 | AB1170036 (antibody, V domains shown) VH: DVKLVESGEGLVKPGGSLKLSCAASGFTFSSYAMSWVRQTPEKRLEWVAYISSGGDNIYYADTVKGRFTISRDNARNTLYLQMSSLKSEDTAMYYCTRALVENAYFDYWGQGTTLTVSS VL: DSVLTQSPASLLVSLGQRATISCRASKSVSTSTYSYMHWYQQKPGQPPKLLIKYASYLESGVPARFSGSGSGTDFTLNIHPVEEEDAATYYCQHSREFPWTFGGGTKLEIK | binds | binds | binds | 0.622
12 | AB1170047 (antibody, V domains shown) VH: QVQLQQSGPELVKPGASVKLSCKASGYTFTSYDINWVKQRPGQGLEWIGWIYPRDGISKYNEKFKGKATLTVDTSSSTAYMELHSLTSEDSAVYFCAGTYDPAYFDYWGQGTTLTVSS VL: DIVLTQSPATLSVTPGDRVSLSCRASQSISYYLHWYQQKSHESPRLLIKYASQSISGIPSRFSGSGSGTDFTLSINSVETEDFGMYFCQQSNSWPYTFGGGTKLEIK | binds | binds | binds | 1.36
